According to article PMC12056058 (Nature Communications, 2025):

T1: Fis1 (mitochondrial fission protein 1), cytosolic domain (Homo sapiens, UniProt Q9Y3D6, T34D)
T1 construct: cytosolic domain, C-terminal HRV 3C site and His6 tag (cut off), codon optimized, E. coli BL21(DE3); first 30 residues disordered in mutant crystals
T1 sequence (Q9Y3D6 1-123 T34D): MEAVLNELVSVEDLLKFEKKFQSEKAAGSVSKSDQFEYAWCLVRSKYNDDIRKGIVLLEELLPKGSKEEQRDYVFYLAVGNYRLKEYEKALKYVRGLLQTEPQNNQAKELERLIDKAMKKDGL


Experiments:
[1] = target: T1, Fis1 (mitochondrial fission protein 1), cytosolic domain; assay: CPM thiol fluorescence competition; type: binding; settings: read-out: apparent IC50
[2] = target: the molecule itself; assay: crystal structure; tag-free Fis1 protein/mutant at 8 mg/ml, sitting drop; data at 100 K, SSRL BL12-2; molecular replacement with PDB 1NZN

Row | IC50 [1] [µM] | Molecule | binding result [2]
1 | 9.4 | CN(CCCN1c2ccccc2Sc2ccccc21)C(=O)CCl [SP11, N-(3-(10H-phenothiazin-10-yl)propyl)-2-chloro-N-methylacetamide] | 
2 | 15.4 | C=CC(=O)N(C)CCCN1c2ccccc2Sc2ccccc21 [SP22, N-(3-(10H-phenothiazin-10-yl)propyl)-N-methylacrylamide] | 
3 |  | Thr34Asp Fis1, cytosolic domain, tag-free (domain or fragment, human, Mitochondrial fission protein 1 (Fis1), human, cytosolic domain; also called T34D; phosphorylation mimic-mutant; source: E. coli BL21 (DE3), purified (Ni-NTA, HRV 3C cleavage, reverse Ni-NTA); not shown: His6, C-terminal, cleaved) MEAVLNELVSVEDLLKFEKKFQSEKAAGSVSKSDQFEYAWCLVRSKYNDDIRKGIVLLEELLPKGSKEEQRDYVFYLAVGNYRLKEYEKALKYVRGLLQTEPQNNQAKELERLIDKAMKKDGL | binds
4 |  | Tyr38Glu Fis1, cytosolic domain, tag-free (domain or fragment, human, Mitochondrial fission protein 1 (Fis1), human, cytosolic domain; also called Y38E; phosphorylation mimic-mutant; source: E. coli BL21 (DE3), purified (Ni-NTA, HRV 3C cleavage, reverse Ni-NTA); not shown: His6, C-terminal, cleaved) MEAVLNELVSVEDLLKFEKKFQSEKAAGSVSKSTQFEEAWCLVRSKYNDDIRKGIVLLEELLPKGSKEEQRDYVFYLAVGNYRLKEYEKALKYVRGLLQTEPQNNQAKELERLIDKAMKKDGL | binds
5 |  | Thr34Glu Fis1, cytosolic domain, tag-free (domain or fragment, human, Mitochondrial fission protein 1 (Fis1), human, cytosolic domain; also called phosphorylation mimic-mutant; source: E. coli BL21 (DE3), purified (Ni-NTA, HRV 3C cleavage, reverse Ni-NTA); not shown: His6, C-terminal, cleaved) MEAVLNELVSVEDLLKFEKKFQSEKAAGSVSKSEQFEYAWCLVRSKYNDDIRKGIVLLEELLPKGSKEEQRDYVFYLAVGNYRLKEYEKALKYVRGLLQTEPQNNQAKELERLIDKAMKKDGL | binds
